Measurements from patent US20190062420A1 (Janssen / Centocor, published 2019).
Read-outs that look alike come from different tables or passages of the source.

Assays:
[1] = biological target: T1, human FcγRIIA (NM_021642) expressed on cells (human, UniProt P12318 36-317); test: flow cytometry; Expi293F cells transfected with FcγRIIA
T1 construct: Transiently expressed on Expi293F cells; also used here for FcγRIIA on human macrophages in the ADCP assay; also called Expi293F FcγRIIA; HEK293F cells expressing FcγRIIA
T1 sequence: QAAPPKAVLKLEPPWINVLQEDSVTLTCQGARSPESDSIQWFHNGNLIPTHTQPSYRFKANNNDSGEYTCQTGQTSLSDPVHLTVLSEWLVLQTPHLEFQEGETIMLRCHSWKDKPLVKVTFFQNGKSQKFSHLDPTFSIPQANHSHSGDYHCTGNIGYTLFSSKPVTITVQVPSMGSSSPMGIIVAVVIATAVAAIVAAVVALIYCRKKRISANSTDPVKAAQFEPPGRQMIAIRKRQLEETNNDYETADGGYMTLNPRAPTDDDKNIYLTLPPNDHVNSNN

[2] = biological target: T1, human FcγRIIA (NM_021642) expressed on …; test: cell-based or functional assay
[3] = biological target: T2, human FcγRIIB (NM_004001) expressed on cells (human, UniProt P31994 43-310); test: flow cytometry; Raji cells (express predominantly FcγRIIB)
T2 construct: Transiently expressed on Expi293F cells; also called Expi293F FcγRIIB; HEK293F cells expressing FcγRIIB
T2 sequence: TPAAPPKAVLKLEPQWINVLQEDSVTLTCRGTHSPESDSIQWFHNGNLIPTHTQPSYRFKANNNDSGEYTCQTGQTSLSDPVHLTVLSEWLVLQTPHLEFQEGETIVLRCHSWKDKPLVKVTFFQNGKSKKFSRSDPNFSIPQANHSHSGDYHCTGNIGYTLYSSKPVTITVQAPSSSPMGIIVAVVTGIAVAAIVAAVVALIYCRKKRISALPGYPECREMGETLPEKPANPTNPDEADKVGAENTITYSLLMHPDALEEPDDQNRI
Procedure, shortened: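 Raji B cells, predominantly FcγRIIB-expressing, BSA-blocked, then incubated with mAbtyrin titrations 1.5 h at 4° C. Bound antibody detected with PE-labeled anti-human IgG F(ab′) 45 min at 4° C. Geometric mean fluorescence from ≥10,000 DRAQ7-excluded live cells; EC₅₀ by nonlinear regression of log concentration.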

[4] = biological target: T1, human FcγRIIA (NM_021642) expressed on …; test: flow cytometry; Expi293F cells transfected with FcγRIIA; remark: listed apart in the source
Experimental: (§1) Plasmids expressing cDNAs encoding human FcγRI (NM_000566) (SEQ ID NO: 44), FcγRIIA (NM_021642) (SEQ ID NO: 2), FcγRIIB (NM_004001) (SEQ ID NO: 3), and FcγRIIIA (NM_000569) (SEQ ID NO: 45) (Origene) were transiently transfected into Expi293F cells by ExpiFectamine293 transfection kit (Life Technologies). Flow cytometry assays were performed 48 h after transfection.
(§2) 2×10⁵ cells per well were seeded in 96-well plate and blocked in BSA Stain Buffer (BD Biosciences, San Jose, USA) for 30 min at 4° C. Cells were incubated with test mAbtyrin on ice for 1.5 h at 4° C. After being washed twice with BSA stain buffer, the cells were incubated with R-PE labeled anti-human or anti-mouse IgG secondary antibody (Jackson Immunoresearch Laboratories) for 45 min at 4° C. The cells were washed twice in stain buffer and then resuspended in 150 μL of Stain Buffer containing 1:200 diluted DRAQ7 live/dead stain (Cell Signaling Technology, Danvers, USA). PE and DRAQ7 signals of the stained cells were detected by Miltenyi MACSQuant flow cytometer (Miltenyi Biotec, Auburn, USA) using B2 and B4 channel respectively. Live cells were gated on DRAQ7 exclusion and the geometric mean fluorescence signals were determined for at least 10,000 live events collected. FlowJo software (Tree Star) was used for analysis. Data was plotted as the logarithm of antibody concentration versus mean fluorescence signals. Nonlinear regression analysis was performed by GraphPad Prism 6 (GraphPad Software, Inc.) and EC₅₀ values were calculated.

[5] = biological target: T2, human FcγRIIB (NM_004001) expressed on …; test: flow cytometry; Raji cells (express predominantly FcγRIIB); remark: listed apart in the source
Experimental: as §2
Raji cell is a cell line derived from B cells that express predominantly FcγRIIB. The binding of mAbtyrins on Raji cells were investigated by flow cytometry assay described for testing mAbtyrin binding to FcγR. Binding of the mAbtyrins were detected by flow cytometry using a PE-labeled Goat F(ab′) against Human IgG(γ).

[6] = biological target: T3, human FcγRI (NM_000566) expressed on cells (human, UniProt P12314 16-374); test: flow cytometry; Expi293F cells transfected with FcγRI
T3 construct: Transiently expressed on Expi293F cells
T3 sequence (P12314 16-374 limits assumed): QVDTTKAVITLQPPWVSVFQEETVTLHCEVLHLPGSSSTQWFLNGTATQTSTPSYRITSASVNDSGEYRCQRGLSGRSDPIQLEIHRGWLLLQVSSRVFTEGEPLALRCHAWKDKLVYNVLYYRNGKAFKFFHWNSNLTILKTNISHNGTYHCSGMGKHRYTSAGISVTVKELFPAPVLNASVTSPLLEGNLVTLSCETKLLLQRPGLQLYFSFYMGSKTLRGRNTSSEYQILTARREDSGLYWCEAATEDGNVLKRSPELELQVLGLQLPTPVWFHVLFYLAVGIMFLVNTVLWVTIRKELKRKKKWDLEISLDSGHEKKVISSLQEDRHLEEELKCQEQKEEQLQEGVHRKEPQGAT
Experimental: as §1, §2

FcγRIIB protein = biological target: T4, FcγRIIB protein (human, UniProt P31994 43-217, biotinylated (SureLINK Biotin Kit) in the ELISA of Example 1); test: ELISA; FcγRIIB protein coated on plate, anti-human IgG-HRP detection
T4 construct: Soluble/recombinant antigen used in ELISA; also called bt-FcγRIIB; recombinant FcγRIIB protein
T4 sequence: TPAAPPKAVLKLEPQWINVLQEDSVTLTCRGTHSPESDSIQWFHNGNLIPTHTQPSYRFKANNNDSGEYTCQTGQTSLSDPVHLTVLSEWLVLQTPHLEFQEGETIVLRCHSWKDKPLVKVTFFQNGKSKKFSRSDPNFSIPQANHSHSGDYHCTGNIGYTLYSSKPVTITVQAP
Experimental: Effect of the mAbtyrins on T cell activation was evaluated. Briefly, recombinant FcγRIIB or FcγRIIA protein was coated on the plate to provide the crosslinking activity. For T cell activation assay, 100 μL of 30 ng/mL anti-CD3 antibody (OKT3) and 1 μg/mL FcγRIIB or FcγRIIA protein in DPBS were coated in U-bottomed 96-well tissue culture plate overnight. CD4 positive T cells were isolated from PBMC by negative selection. OX40 expression was induced by culturing the isolated T cells in the presence of 1 μg/mL PHA overnight. On the assay day, the coating solution in the plate were aspirated and 150 μL RPMI media was added to block the plate. The cultured T cells were washed three times by RPMI culture media and between 25,000 to 50,000 CD4 positive T cells were seeded in each well in the assay plate. Test mAbtyrins were added to the cells and the plate was incubated for 3 days. T cell activation was assessed by the induction of IFNγ or TNFα production, which was quantitated by human IFNγ or TNFα ELISA detection kit (Biolegend). Prior to T cell activation assay, the binding affinity of mAbtyrins to immobilized FcγRIIB or FcγRIIA protein were evaluated by an ELISA assay. […] The binding of mAbtyrins to immobilized FcγRIIB or FcγRIIA protein were detected by HRP-conjugated anti-Human IgG(γ) secondary antibody and quantitated by ELISA assay using TMB substrate.

Row | Binder | EC50 [1] [µg/mL] | % OX40 cell killed by macrophages (ADCP, 1 µg/ml) [2] [%] | Binding to Raji cells mean signals at 10 µg/ml [3] [mean fluorescence signal] | EC50 [3] [µg/mL] | EC50 [4] [µg/mL] | EC50 [5] [µg/mL] | EC50 [6] [µg/mL] | binding result (FcγRIIB protein)
1 | OX40SF2IgG2sigma_R2BS29_HC-C (bispecific antibody, mAbtyrin: anti-OX40 antibody OX40SF2, effector silent IgG2sigma, with linker and R2BS29 FN3 domain at the C-terminus of the heavy chain; also called mAbtyrin) heavy: QVQLVQSGAEVKKPGSSVKVSCKASGYTFKDYTMHWVRQAPGQGLEWIGGIYPNNGGSTYNQNFKDRVTLTADKSTSTAYMELSSLRSEDTAVYYCARMGYHGPHLDFDVWGQGTTVTVSSASTKGPSVFPLAPCSRSTSESTAALGCLVKDYFPEPVTVSWNSGALTSGVHTFPAVLQSSGLYSLSSVVTVPSSNFGTQTYTCNVDHKPSNTKVDKTVERKCCVECPPCPAPPAAASSVFLFPPKPKDTLMISRTPEVTCVVVDVSAEDPEVQFNWYVDGVEVHNAKTKPREEQFNSTFRVVSVLTVLHQDWLNGKEYKCKVSNKGLPSSIEKTISKTKGQPREPQVYTLPPSREEMTKNQVSLTCLVKGFYPSDIAVEWESNGQPENNYKTTPPMLDSDGSFFLYSKLTVDKSRWQQGNVFSCSVMHEALHNHYTQKSLSLSPGKGGGGGSGGGGSGGGGSGGGGSLPAPKNLVVSRVTEDSARLSWTAPDAAFDSFPIYYWEYRVGGEAIVLTVPGSERSYDLTGLKPGTEYFVYINGVKGGEESRPLSAIFTT light: DIQMTQSPSSLSASVGDRVTITCKASQDVGAAVAWYQQKPGKAPKLLIYWASTRHTGVPSRFSGSGSGTDFTLTISSLQPEDFATYYCQQYINYPLTFGGGTKVEIKRTVAAPSVFIFPPSDEQLKSGTASVVCLLNNFYPREAKVQWKVDNALQSGNSQESVTEQDSKDSTYSLSSTLTLSKADYEKHKVYACEVTHQGLSSPVTKSFNRGEC | 0.091 | 88 | 11900 | 1.44 | 0.066 | 1.44 | > 10 | 
2 | OX40SF2IgG2sigma (antibody, Anti-OX40 antibody, IgG2 sigma isotype (effector silent Fc: V234A, G237A, P238S, H268A, V309L, A330S, P331S against wild type IgG2); control without FN3 domain; also called parental antibody; parental OX40 antibody) heavy: QVQLVQSGAEVKKPGSSVKVSCKASGYTFKDYTMHWVRQAPGQGLEWIGGIYPNNGGSTYNQNFKDRVTLTADKSTSTAYMELSSLRSEDTAVYYCARMGYHGPHLDFDVWGQGTTVTVSSASTKGPSVFPLAPCSRSTSESTAALGCLVKDYFPEPVTVSWNSGALTSGVHTFPAVLQSSGLYSLSSVVTVPSSNFGTQTYTCNVDHKPSNTKVDKTVERKCCVECPPCPAPPAAASSVFLFPPKPKDTLMISRTPEVTCVVVDVSAEDPEVQFNWYVDGVEVHNAKTKPREEQFNSTFRVVSVLTVLHQDWLNGKEYKCKVSNKGLPSSIEKTISKTKGQPREPQVYTLPPSREEMTKNQVSLTCLVKGFYPSDIAVEWESNGQPENNYKTTPPMLDSDGSFFLYSKLTVDKSRWQQGNVFSCSVMHEALHNHYTQKSLSLSPGK light: DIQMTQSPSSLSASVGDRVTITCKASQDVGAAVAWYQQKPGKAPKLLIYWASTRHTGVPSRFSGSGSGTDFTLTISSLQPEDFATYYCQQYINYPLTFGGGTKVEIKRTVAAPSVFIFPPSDEQLKSGTASVVCLLNNFYPREAKVQWKVDNALQSGNSQESVTEQDSKDSTYSLSSTLTLSKADYEKHKVYACEVTHQGLSSPVTKSFNRGEC | > 10 | 12 | 330 | > 10 |  | > 10 |  | no binding
3 | OX40SF2IgG1 (antibody, Anti-OX40 antibody, wild-type IgG1; control without FN3 domain) heavy: not shown light: DIQMTQSPSSLSASVGDRVTITCKASQDVGAAVAWYQQKPGKAPKLLIYWASTRHTGVPSRFSGSGSGTDFTLTISSLQPEDFATYYCQQYINYPLTFGGGTKVEIKRTVAAPSVFIFPPSDEQLKSGTASVVCLLNNFYPREAKVQWKVDNALQSGNSQESVTEQDSKDSTYSLSSTLTLSKADYEKHKVYACEVTHQGLSSPVTKSFNRGEC |  |  |  |  | 3.3 |  | 0.494 | no binding
